Earlier results on 1 substance are cited in article PMC8945002.

The target in the series is BfrB (recombinant) (Pseudomonas aeruginosa) (UniProt Q9HY79). The series is described as follows: SPR. On the technique in general: SPR reads the build-up and loss of mass on a sensor chip optically.
Sequence of BfrB (recombinant) (Pseudomonas aeruginosa) (Q9HY79 whole entry): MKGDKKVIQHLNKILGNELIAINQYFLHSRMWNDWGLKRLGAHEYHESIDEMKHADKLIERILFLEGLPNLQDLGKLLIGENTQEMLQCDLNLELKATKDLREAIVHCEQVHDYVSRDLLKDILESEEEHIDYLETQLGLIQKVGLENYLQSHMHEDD

Sequence of Bfd (Q9HY80 whole entry): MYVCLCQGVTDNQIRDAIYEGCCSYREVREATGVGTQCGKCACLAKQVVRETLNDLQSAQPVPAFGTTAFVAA

Take Bfd (from UniProt Q9HY80): the Kd is 3.3 µM.

One may read the Kd as the constant that tells how readily two partners part at equilibrium.
